Laboratory results reported in US20180155451A1 (published 2018).

B1: GpH7-A5/GpH7-B3 variant S337_08L/GpL16-k0 (antibody, human IgG1, kappa)
heavy 1: not shown
heavy 2: not shown
light: DIVMTQSPLSLPVTPGEPASISCQASESLVHSNRNTYLHWYLQKPGQSPQLLIYKVSNRFSGVPDRFSGSGSGTDFTLKISRVEAEDVGVYYCSQNTHVPPTFGQGTKVEIERTVAAPSVFIFPPSDEQLKSGTASVVCLLNNFYPREAKVQWKVDNALQSGNSQESVTEQDSKDSTYSLSSTLTLSKADYEKHKVYACEVTHQGLSSPVTKSFNRGEC
notes: heterodimerized, mutation in one H chain only; also called He Ab
B2: GpH7-B3 variant T335_13S/GpL16-k0 (antibody, human IgG1, kappa)
heavy: not shown
light: B1 light
notes: homodimerized, mutation in both H chains; also called Ho Ab
B3: GpH7-B3 variant G236_15Y/GpL16-k0 (antibody, human IgG1, kappa)
heavy: not shown
light: B1 light
notes: as for B2
B4: GpH7-B3 variant K334_13S/GpL16-k0 (antibody, human IgG1, kappa)
heavy: not shown
light: B1 light
notes: as for B2
B5: GpH7-B3 variant I336_03V/GpL16-k0 (antibody, human IgG1, kappa)
heavy: not shown
light: B1 light
notes: as for B2
B6: GpH7-B3 variant G236_04F/GpL16-k0 (antibody, human IgG1, kappa)
heavy: not shown
light: B1 light
notes: as for B2
B7: GpH7-B3 variant S267_02A/GpL16-k0 (antibody, human IgG1, kappa)
heavy: not shown
light: B1 light
notes: as for B2
B8: GpH7-B3 variant S337_07I/GpL16-k0 (antibody, human IgG1, kappa)
heavy: not shown
light: B1 light
notes: as for B2
B9: GpH7-B3 variant L234_15Y/GpL16-k0 (antibody, human IgG1, kappa)
heavy: not shown
light: B1 light
notes: as for B2
B10: GpH7-B3 variant G236_14T/GpL16-k0 (antibody, human IgG1, kappa)
heavy: not shown
light: B1 light
notes: as for B2
B11: GpH7-A5/GpH7-B3 variant E333_09D/GpL16-k0 (antibody, human IgG1, kappa)
heavy 1: not shown
heavy 2: not shown
light: B1 light
notes: as for B1
B12: GpH7-B3 variant S239_10E/GpL16-k0 (antibody, human IgG1, kappa)
heavy: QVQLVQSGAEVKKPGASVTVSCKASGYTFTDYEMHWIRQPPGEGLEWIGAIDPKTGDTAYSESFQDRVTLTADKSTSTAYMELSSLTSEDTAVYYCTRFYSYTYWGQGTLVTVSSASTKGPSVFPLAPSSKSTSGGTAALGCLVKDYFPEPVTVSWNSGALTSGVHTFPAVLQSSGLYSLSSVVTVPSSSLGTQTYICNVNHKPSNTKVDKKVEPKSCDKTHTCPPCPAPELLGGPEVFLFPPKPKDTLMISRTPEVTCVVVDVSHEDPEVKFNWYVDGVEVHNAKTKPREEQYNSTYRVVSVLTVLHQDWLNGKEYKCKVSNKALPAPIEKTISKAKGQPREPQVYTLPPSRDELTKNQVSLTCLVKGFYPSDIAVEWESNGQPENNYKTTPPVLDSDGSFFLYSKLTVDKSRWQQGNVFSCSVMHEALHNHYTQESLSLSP
light: B1 light
notes: as for B2
B13: GpH7-B3 variant K334_19Q/GpL16-k0 (antibody, human IgG1, kappa)
heavy: not shown
light: B1 light
notes: as for B2
B14: GpH7-B3 variant K326_07I/GpL16-k0 (antibody, human IgG1, kappa)
heavy: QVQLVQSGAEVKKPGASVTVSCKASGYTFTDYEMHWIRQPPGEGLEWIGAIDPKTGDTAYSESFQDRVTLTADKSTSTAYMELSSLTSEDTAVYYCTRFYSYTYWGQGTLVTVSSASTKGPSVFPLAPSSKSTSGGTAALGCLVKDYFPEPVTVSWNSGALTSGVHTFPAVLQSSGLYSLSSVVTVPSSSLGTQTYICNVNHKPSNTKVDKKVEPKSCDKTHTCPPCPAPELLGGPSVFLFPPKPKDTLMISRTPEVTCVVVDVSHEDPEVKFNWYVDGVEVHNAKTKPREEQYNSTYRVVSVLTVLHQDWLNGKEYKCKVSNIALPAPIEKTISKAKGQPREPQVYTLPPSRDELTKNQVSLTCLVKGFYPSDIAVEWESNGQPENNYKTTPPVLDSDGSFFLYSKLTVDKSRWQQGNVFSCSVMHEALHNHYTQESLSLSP
light: B1 light
notes: as for B2
B15: GpH7-A5/GpH7-B3 variant T335_18N/GpL16-k0 (antibody, human IgG1, kappa)
heavy 1: not shown
heavy 2: not shown
light: B1 light
notes: as for B1
B16: GpH7-A5/GpH7-B3 variant G236_03V/GpL16-k0 (antibody, human IgG1, kappa)
heavy 1: not shown
heavy 2: not shown
light: B1 light
notes: as for B1
B17: GpH7-B3 variant L234_20W/GpL16-k0 (antibody, human IgG1, kappa)
heavy: not shown
light: B1 light
notes: as for B2
B18: GpH7-B3 variant S324_02A/GpL16-k0 (antibody, human IgG1, kappa)
heavy: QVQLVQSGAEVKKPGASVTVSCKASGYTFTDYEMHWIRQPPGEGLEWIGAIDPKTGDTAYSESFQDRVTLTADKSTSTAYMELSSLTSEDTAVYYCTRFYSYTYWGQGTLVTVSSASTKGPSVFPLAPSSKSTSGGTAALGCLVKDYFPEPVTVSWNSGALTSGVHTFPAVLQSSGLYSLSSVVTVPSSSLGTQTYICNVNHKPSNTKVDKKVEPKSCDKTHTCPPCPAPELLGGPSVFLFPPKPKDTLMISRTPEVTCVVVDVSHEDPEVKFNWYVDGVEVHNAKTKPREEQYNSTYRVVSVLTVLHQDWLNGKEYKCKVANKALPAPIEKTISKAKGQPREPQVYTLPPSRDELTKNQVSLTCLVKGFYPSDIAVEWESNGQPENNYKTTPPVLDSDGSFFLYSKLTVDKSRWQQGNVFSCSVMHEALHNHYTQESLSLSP
light: B1 light
notes: as for B2
B19: GpH7-B3 variant T335_01G/GpL16-k0 (antibody, human IgG1, kappa)
heavy: not shown
light: B1 light
notes: as for B2
B20: GpH7-B3 variant S337_09D/GpL16-k0 (antibody, human IgG1, kappa)
heavy: not shown
light: B1 light
notes: as for B2
B21: GpH7-B3 variant T335_10E/GpL16-k0 (antibody, human IgG1, kappa)
heavy: not shown
light: B1 light
notes: as for B2
B22: GpH7-B3 variant I336_10E/GpL16-k0 (antibody, human IgG1, kappa)
heavy: not shown
light: B1 light
notes: as for B2
B23: GpH7-B3 variant S337_10E/GpL16-k0 (antibody, human IgG1, kappa)
heavy: not shown
light: B1 light
notes: as for B2
B24: GpH7-B3 variant E333_04F/GpL16-k0 (antibody, human IgG1, kappa)
heavy: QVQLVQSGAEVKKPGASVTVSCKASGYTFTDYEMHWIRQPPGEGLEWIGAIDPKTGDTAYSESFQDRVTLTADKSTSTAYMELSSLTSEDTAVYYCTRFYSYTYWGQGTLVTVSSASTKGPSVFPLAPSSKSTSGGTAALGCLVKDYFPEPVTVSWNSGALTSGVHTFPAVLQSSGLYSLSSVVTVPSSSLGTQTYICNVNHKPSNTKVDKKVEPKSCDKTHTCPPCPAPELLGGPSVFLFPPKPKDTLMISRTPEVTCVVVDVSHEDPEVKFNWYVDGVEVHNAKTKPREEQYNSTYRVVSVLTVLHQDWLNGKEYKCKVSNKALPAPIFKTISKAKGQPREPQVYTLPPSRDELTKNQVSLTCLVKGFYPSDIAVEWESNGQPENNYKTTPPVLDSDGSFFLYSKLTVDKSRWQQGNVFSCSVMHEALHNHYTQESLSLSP
light: B1 light
notes: as for B2
B25: GpH7-B3 variant K326_12R/GpL16-k0 (antibody, human IgG1, kappa)
heavy: not shown
light: B1 light
notes: as for B2
B26: GpH7-B3 variant S267_10E/GpL16-k0 (antibody, human IgG1, kappa)
heavy: not shown
light: B1 light
notes: as for B2
B27: GpH7-B3 variant L328_06M/GpL16-k0 (antibody, human IgG1, kappa)
heavy: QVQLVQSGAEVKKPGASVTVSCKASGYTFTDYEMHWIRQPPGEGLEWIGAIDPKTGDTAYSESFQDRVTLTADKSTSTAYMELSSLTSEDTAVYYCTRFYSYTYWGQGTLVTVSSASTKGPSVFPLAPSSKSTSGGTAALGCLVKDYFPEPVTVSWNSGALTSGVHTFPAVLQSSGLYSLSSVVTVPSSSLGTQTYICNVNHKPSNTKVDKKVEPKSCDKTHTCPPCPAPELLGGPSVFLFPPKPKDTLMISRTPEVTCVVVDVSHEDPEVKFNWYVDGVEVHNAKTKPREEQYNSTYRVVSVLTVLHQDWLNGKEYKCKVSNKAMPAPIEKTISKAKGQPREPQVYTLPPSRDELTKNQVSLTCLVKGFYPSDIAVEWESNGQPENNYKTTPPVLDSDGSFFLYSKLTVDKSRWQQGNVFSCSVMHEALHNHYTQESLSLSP
light: B1 light
notes: as for B2
B28: GpH7-B3 variant K326_01G/GpL16-k0 (antibody, human IgG1, kappa)
heavy: not shown
light: B1 light
notes: as for B2
B29: GpH7-B3 variant A327_09D/GpL16-k0 (antibody, human IgG1, kappa)
heavy: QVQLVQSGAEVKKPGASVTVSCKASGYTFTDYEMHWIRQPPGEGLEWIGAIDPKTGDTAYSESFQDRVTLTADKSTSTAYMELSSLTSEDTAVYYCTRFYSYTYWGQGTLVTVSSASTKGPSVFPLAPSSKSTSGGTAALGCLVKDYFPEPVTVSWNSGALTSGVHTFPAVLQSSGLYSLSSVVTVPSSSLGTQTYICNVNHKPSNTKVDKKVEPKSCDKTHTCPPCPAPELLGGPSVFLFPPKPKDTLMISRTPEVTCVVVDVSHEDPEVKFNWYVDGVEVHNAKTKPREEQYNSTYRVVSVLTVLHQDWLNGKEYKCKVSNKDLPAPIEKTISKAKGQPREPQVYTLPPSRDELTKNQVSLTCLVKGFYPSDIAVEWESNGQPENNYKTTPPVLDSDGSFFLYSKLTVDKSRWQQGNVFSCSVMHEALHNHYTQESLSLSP
light: B1 light
notes: as for B2
B30: GpH7-B3 variant E333_08L/GpL16-k0 (antibody, human IgG1, kappa)
heavy: not shown
light: B1 light
notes: as for B2
B31: GpH7-B3 variant A330_19Q/GpL16-k0 (antibody, human IgG1, kappa)
heavy: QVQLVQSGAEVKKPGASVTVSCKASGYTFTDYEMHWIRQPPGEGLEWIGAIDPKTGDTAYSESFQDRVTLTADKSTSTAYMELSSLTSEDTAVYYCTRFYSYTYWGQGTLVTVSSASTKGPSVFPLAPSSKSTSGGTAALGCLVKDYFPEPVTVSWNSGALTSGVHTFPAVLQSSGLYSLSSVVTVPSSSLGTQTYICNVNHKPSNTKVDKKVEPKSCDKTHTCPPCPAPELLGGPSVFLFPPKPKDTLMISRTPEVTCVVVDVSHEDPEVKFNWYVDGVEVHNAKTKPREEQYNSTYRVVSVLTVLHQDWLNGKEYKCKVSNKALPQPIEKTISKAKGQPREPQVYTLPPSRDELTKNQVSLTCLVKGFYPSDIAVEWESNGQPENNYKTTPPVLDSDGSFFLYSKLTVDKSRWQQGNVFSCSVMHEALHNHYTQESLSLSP
light: B1 light
notes: as for B2
B32: GpH7-A5/GpH7-B3 variant Y296_04F/GpL16-k0 (antibody, human IgG1, kappa)
heavy 1: not shown
heavy 2: not shown
light: B1 light
notes: as for B1
B33: GpH7-A5/GpH7-B3 variant V266_08L/GpL16-k0 (antibody, human IgG1, kappa)
heavy 1: not shown
heavy 2: not shown
light: B1 light
notes: as for B1
B34: GpH7-B3 variant L235_20W/GpL16-k0 (antibody, human IgG1, kappa)
heavy: not shown
light: B1 light
notes: as for B2
B35: GpH7-B3 variant L328_14T/GpL16-k0 (antibody, human IgG1, kappa)
heavy: not shown
light: B1 light
notes: as for B2
B36: GpH7-B3 variant L234_04F/GpL16-k0 (antibody, human IgG1, kappa)
heavy: not shown
light: B1 light
notes: as for B2
B37: GpH7-A5/GpH7-B3 variant Y296_09D/GpL16-k0 (antibody, human IgG1, kappa)
heavy 1: not shown
heavy 2: not shown
light: B1 light
notes: as for B1
B38: GpH7-B3 variant T335_15Y/GpL16-k0 (antibody, human IgG1, kappa)
heavy: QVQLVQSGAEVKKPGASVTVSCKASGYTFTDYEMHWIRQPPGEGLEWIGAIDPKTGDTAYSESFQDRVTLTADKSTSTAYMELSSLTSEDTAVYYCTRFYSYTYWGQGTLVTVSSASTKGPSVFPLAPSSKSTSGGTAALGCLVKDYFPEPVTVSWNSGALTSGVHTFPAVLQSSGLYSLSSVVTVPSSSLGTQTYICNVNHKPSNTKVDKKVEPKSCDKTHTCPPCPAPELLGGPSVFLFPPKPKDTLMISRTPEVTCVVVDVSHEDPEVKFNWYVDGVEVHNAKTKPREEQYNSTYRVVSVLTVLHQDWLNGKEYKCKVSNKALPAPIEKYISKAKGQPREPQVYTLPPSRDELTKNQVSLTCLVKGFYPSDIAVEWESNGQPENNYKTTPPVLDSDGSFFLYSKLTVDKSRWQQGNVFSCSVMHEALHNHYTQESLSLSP
light: B1 light
notes: as for B2
B39: GpH7-B3 variant T335_07I/GpL16-k0 (antibody, human IgG1, kappa)
heavy: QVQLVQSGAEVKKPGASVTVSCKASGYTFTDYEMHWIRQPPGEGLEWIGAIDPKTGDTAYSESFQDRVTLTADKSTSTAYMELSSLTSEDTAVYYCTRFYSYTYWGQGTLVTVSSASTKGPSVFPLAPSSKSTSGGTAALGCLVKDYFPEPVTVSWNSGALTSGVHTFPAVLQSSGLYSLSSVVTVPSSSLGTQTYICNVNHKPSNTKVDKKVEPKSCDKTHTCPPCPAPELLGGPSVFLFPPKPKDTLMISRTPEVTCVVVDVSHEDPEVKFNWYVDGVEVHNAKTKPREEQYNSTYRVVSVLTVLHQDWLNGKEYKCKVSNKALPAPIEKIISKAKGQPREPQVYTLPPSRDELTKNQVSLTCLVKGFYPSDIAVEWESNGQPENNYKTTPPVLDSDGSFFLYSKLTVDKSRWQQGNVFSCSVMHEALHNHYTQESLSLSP
light: B1 light
notes: as for B2
B40: GpH7-B3 variant E333_13S/GpL16-k0 (antibody, human IgG1, kappa)
heavy: not shown
light: B1 light
notes: as for B2
B41: GpH7-B3 variant S239_09D/GpL16-k0 (antibody, human IgG1, kappa)
heavy: not shown
light: B1 light
notes: as for B2
B42: GpH7-B3 variant V266_07I/GpL16-k0 (antibody, human IgG1, kappa)
heavy: not shown
light: B1 light
notes: as for B2
B43: GpH7-B3 variant I336_18N/GpL16-k0 (antibody, human IgG1, kappa)
heavy: not shown
light: B1 light
notes: as for B2
B44: GpH7-A5/GpH7-B3 variant A330_16H/GpL16-k0 (antibody, human IgG1, kappa)
heavy 1: not shown
heavy 2: not shown
light: B1 light
notes: as for B1
B45: GpH7-B3 variant Y296_18N/GpL16-k0 (antibody, human IgG1, kappa)
heavy: not shown
light: B1 light
notes: as for B2
B46: GpH7-B3 variant S239_08L/GpL16-k0 (antibody, human IgG1, kappa)
heavy: not shown
light: B1 light
notes: as for B2
B47: GpH7-A5/GpH7-B3 variant Y296_16H/GpL16-k0 (antibody, human IgG1, kappa)
heavy 1: not shown
heavy 2: not shown
light: B1 light
notes: as for B1
B48: GpH7-B3 variant T335_16H/GpL16-k0 (antibody, human IgG1, kappa)
heavy: not shown
light: B1 light
notes: as for B2
B49: GpH7-B3 variant K334_08L/GpL16-k0 (antibody, human IgG1, kappa)
heavy: not shown
light: B1 light
notes: as for B2
B50: GpH7-B3 variant L235_15Y/GpL16-k0 (antibody, human IgG1, kappa)
heavy: not shown
light: B1 light
notes: as for B2
B51: GpH7-B3 variant S267_09D/GpL16-k0 (antibody, human IgG1, kappa)
heavy: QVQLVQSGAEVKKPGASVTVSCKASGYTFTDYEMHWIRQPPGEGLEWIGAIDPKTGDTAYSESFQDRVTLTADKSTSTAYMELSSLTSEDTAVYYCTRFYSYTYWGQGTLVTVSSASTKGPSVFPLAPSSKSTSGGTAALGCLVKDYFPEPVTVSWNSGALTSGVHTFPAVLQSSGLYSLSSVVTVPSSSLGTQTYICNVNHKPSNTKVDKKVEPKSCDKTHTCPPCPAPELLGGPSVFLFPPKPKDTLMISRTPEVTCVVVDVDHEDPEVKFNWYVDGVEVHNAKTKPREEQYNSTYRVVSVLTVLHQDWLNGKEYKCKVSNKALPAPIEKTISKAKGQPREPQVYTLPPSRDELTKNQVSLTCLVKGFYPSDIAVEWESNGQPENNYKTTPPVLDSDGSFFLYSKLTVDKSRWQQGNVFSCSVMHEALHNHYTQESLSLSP
light: B1 light
notes: as for B2
B52: GpH7-B3 variant K334_16H/GpL16-k0 (antibody, human IgG1, kappa)
heavy: not shown
light: B1 light
notes: as for B2
B53: GpH7-B3 variant K334_04F/GpL16-k0 (antibody, human IgG1, kappa)
heavy: not shown
light: B1 light
notes: as for B2
B54: GpH7-A5/GpH7-B3 variant S337_20W/GpL16-k0 (antibody, human IgG1, kappa)
heavy 1: not shown
heavy 2: not shown
light: B1 light
notes: as for B1
B55: GpH7-A5/GpH7-B3 variant T335_20W/GpL16-k0 (antibody, human IgG1, kappa)
heavy 1: not shown
heavy 2: not shown
light: B1 light
notes: as for B1
B56: GpH7-B3 variant L328_20W/GpL16-k0 (antibody, human IgG1, kappa)
heavy: not shown
light: B1 light
notes: as for B2
B57: GpH7-B3 variant T335_19Q/GpL16-k0 (antibody, human IgG1, kappa)
heavy: not shown
light: B1 light
notes: as for B2
B58: GpH7-B3 variant E333_14T/GpL16-k0 (antibody, human IgG1, kappa)
heavy: not shown
light: B1 light
notes: as for B2
B59: GpH7-B3 variant L235_04F/GpL16-k0 (antibody, human IgG1, kappa)
heavy: not shown
light: B1 light
notes: as for B2

Key:
[1] = molecular target: T1, FcγRIIa H (human FcγRIIa, allotype with His at position 131), extracellular domain with C-terminal His tag (human, UniProt P12318 34-217); test: SPR (Biacore), antibody captured on antigen peptide chip, FcγR as analyte; relative to HeCon Ab GpH7-A5/GpH7-B3/GpL16-k0 = 100
Target sequence in this assay (P12318 34-217): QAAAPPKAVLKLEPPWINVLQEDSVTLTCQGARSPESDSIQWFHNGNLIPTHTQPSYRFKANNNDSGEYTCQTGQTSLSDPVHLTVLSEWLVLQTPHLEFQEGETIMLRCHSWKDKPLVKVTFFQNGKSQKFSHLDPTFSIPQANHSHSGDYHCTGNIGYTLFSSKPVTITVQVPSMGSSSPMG

[2] = molecular target: T1, FcγRIIa H (human FcγRIIa, allotype with …); test: SPR (Biacore), antibody captured on antigen peptide chip, FcγR as analyte; relative to HoCon Ab GpH7-B3/GpL16-k0 = 100

Row | Binder | He/Con_2aH [1] | Ho/Con_2aH [2]
1 | B1 | 100 control = 100 | 
2 | B2 |  | 101 control = 100
3 | B3 |  | 80.4 control = 100
4 | B4 |  | 94.9 control = 100
5 | B5 |  | 90.4 control = 100
6 | B6 |  | 63.2 control = 100
7 | B7 |  | 120 control = 100
8 | B8 |  | 94 control = 100
9 | B9 |  | 43.8 control = 100
10 | B10 |  | 94.2 control = 100
11 | B11 | 103 control = 100 | 
12 | B12 |  | 91.4 control = 100
13 | B13 |  | 97.2 control = 100
14 | B14 |  | 78.1 control = 100
15 | B15 | 103 control = 100 | 
16 | B16 | 119 control = 100 | 
17 | B17 |  | 55.3 control = 100
18 | B18 |  | 102 control = 100
19 | B19 |  | 101 control = 100
20 | B20 |  | 107 control = 100

Row | Binder | He/Con_2aH [1] | Ho/Con_2aH [2]
21 | B21 |  | 105 control = 100
22 | B22 |  | 93.4 control = 100
23 | B23 |  | 101 control = 100
24 | B24 |  | 93.6 control = 100
25 | B25 |  | 98.8 control = 100
26 | B26 |  | 98.5 control = 100
27 | B27 |  | 100 control = 100
28 | B28 |  | 98.2 control = 100
29 | B29 |  | 90.1 control = 100
30 | B30 |  | 96.5 control = 100
31 | B31 |  | 99.2 control = 100
32 | B32 | 100 control = 100 | 
33 | B33 | 104 control = 100 | 
34 | B34 |  | 112 control = 100
35 | B35 |  | 110 control = 100
36 | B36 |  | 54.2 control = 100
37 | B37 | 104 control = 100 | 
38 | B38 |  | 102 control = 100
39 | B39 |  | 105 control = 100
40 | B40 |  | 94.6 control = 100

Row | Binder | He/Con_2aH [1] | Ho/Con_2aH [2]
41 | B41 |  | 112 control = 100
42 | B42 |  | 104 control = 100
43 | B43 |  | 94.3 control = 100
44 | B44 | 101 control = 100 | 
45 | B45 |  | 100 control = 100
46 | B46 |  | 87 control = 100
47 | B47 | 104 control = 100 | 
48 | B48 |  | 100 control = 100
49 | B49 |  | 103 control = 100
50 | B50 |  | 107 control = 100
51 | B51 |  | 91.5 control = 100
52 | B52 |  | 101 control = 100
53 | B53 |  | 103 control = 100
54 | B54 | 102 control = 100 | 
55 | B55 | 105 control = 100 | 
56 | B56 |  | 112 control = 100
57 | B57 |  | 103 control = 100
58 | B58 |  | 90.4 control = 100
59 | B59 |  | 101 control = 100
